What all share (assay): EMSA; 150 mM KCl, 1 mM Mg2+; EMSA: 50 mM Tris-HCl pH 7.4, 1 mM MgCl2, 0.1 mM EDTA, 150 mM KCl (or LiCl, printed LiCl2), 1 mM DTT, 1 U/ul RNase inhibitor, 100 ug/ml BSA, ~25 C, 20 min; 0.5 pmol RNA in 10 ul
What all share (details): protein: recombinant; tags: N-terminal GST (pGEX-6P-1); label: 5' 32P or 5' ATTO 550; intramolecular G4 (plausible structure)
Background: Mobility shift assays separate free from complexed probe on a gel.

The target of data set [1] is GST-FXR1 S382-P476 R386-459K (human, UniProt P51114 382-476, R386K;R388K;R453K;R455K;R459K).
The target in a further data set is GST-FXR1 S382-P476 WT (human, UniProt P51114 382-476).
A further data set has as its target GST-FXR1 S382-P476 R386K (human, UniProt P51114 382-476, R386K).

Sequence of GST-FXR1 S382-P476 WT (P51114 382-476): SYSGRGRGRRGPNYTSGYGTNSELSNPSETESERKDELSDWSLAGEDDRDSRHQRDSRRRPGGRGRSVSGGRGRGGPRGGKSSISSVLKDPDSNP
Sequence of GST-FXR1 S382-P476 R386K (P51114 382-476 R386K): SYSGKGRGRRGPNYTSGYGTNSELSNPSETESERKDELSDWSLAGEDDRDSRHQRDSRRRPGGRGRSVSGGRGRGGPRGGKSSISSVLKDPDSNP
Sequence of GST-FXR1 S382-P476 R386-459K (P51114 382-476 R386K/R388K/R453K/R455K/R459K): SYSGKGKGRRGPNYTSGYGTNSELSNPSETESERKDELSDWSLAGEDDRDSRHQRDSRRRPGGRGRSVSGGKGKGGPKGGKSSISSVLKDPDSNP

As usually defined, the Kd is a measure of binding affinity in units of concentration. As to GGGGGUGAGGGUCCCAUGUGGUGGCACAGG (structured_RNA) [30-mer p21 3'UTR G4-RNA (seg1)], the binding result (in data set [1]; with GST-FXR1 S382-P476 R386K) was “no binding” each time. For the same molecule, the Kd with GST-FXR1 S382-P476 WT was 25 nM.

Values taken from article PMC11229354, “PRMT5-mediated arginine methylation of FXR1 is essential for RNA binding in cancer cells”.
